From article PMC10786404

Tests used:
[1] = target: protease activated receptor 2 (PAR2) (human (endogenous in Caco-2)) (UniProt P55085)
[2] = target: protease activated receptor 2 (PAR2) (human (endogenous in Caco-2)) (UniProt P55085); remark: listed apart in the source
[3] = target: protease activated receptor 2 (PAR2) (human (endogenous in Caco-2)) (UniProt P55085); remark: listed apart in the source
[4] = target: protease activated receptor 2 (PAR2) (human (endogenous in Caco-2)) (UniProt P55085); remark: listed apart in the source
[5] = target: protease activated receptor 2 (PAR2) (human (endogenous in Caco-2)) (UniProt P55085); remark: listed apart in the source

UniProt P55085, sequence (P55085 37-397): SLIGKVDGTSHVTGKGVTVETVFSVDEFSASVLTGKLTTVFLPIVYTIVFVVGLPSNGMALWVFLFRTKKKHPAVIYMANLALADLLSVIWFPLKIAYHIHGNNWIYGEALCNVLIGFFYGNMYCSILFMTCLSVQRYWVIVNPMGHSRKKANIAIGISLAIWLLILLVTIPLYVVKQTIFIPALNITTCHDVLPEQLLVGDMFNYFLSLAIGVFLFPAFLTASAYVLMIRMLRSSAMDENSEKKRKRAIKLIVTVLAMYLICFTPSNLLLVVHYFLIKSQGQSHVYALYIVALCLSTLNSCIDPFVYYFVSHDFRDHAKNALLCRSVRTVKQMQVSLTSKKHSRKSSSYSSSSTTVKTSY

## Recombinant Trichinella spiralis trypsin, C-terminal domain (rTsTryp) (from UniProt E5RYV9 1-667)
[1]
  ZO-1 mRNA (qPCR) in Caco-2 cells treated with rTsTryp, against the DMSO group; restored by AZ3451 pretreatment: 55.9 % decrease
  occludin mRNA (qPCR) in Caco-2 cells treated with rTsTryp, against the DMSO group; restored by AZ3451 pretreatment: 52.4 % decrease
[2]
  ZO-1 protein (Western blot) in the Caco-2 monolayer treated with rTsTryp, against the DMSO group; abrogated by AZ3451 pretreatment: 56.5 % decrease
  occludin protein (Western blot) in the Caco-2 monolayer treated with rTsTryp, against the DMSO group; abrogated by AZ3451 pretreatment: 49 % decrease
[3]
  level of phosphorylated ERK1/2 (Western blot) in the Caco-2 monolayer after 2 h with rTsTryp, against the PBS group: 210 % increase
[4]
  promotion of IIL larval invasion of the Caco-2 monolayer by 12, 16 and 20 μg/ml rTsTryp, against the PBS group: 40.2 % promotion
[5]
  flux of 4 kDa FITC-dextran (FD4) through the Caco-2 monolayer, rTsTryp group against the PBS group (fold of the PBS group): 2
